Experimental data from patent US20160272693A1 (ZEALAND PHARMA A S, published 2016).
*1 amine or outer side, *2 acyl side, *3 side chain or, on linkers, in order; H or OH if unused. Bridges are numbered along the chain shown (N, C = ends). [ ]: non-standard residue; d: D form. The star is where a group is joined. C20 diacid = O=C(O)CCCCCCCCCCCCCCCCCCC(=O)*; γGlu = O=C(O)[C@H](CCC(=O)[*:2])N[*:1]; Hyp = O=C(O)[C@@H]1C[C@@H](O)CN1; NMeI = CC[C@H](C)[C@H](NC)C(=O)O; Aad = N[C@@H](CCCC(=O)O)C(=O)O; Sar = CNCC(=O)O

T1: human amylin receptor 3 (hAMYR3), hCTR2 co-expressed with human receptor activity modifying protein 3 (hRAMP3) (human, UniProt P30988 25-474; O60896 24-148)
T1 sequence (looked up) 1: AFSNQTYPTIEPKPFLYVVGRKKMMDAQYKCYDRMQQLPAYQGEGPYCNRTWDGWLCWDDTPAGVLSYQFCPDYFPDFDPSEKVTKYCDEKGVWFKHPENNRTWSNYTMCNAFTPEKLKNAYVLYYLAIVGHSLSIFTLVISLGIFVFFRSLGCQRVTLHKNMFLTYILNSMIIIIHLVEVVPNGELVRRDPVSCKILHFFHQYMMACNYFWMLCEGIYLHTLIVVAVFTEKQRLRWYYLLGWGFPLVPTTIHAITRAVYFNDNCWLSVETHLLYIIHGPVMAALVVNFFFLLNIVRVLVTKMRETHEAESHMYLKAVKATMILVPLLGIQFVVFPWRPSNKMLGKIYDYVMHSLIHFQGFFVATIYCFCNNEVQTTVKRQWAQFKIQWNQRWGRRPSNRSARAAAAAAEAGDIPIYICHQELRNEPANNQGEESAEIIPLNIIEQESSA
T1 sequence (looked up) 2: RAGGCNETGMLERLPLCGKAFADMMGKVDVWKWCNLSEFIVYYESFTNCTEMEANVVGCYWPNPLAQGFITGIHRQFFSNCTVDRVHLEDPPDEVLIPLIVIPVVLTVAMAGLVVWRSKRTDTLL


Biological target: T1, human amylin receptor 3 (hAMYR3), hCTR2 …
Assay: cell-based or functional assay

Binder | hAMYR3 EC50 (nM); cAMP induction
{C20 diacid}-[γGlu]RCPTATCATERLAHFLQRSSF[Sar]A[NMeI]LSSTEVGSTT[Hyp]-NH2 (disulfide 3-8; SMILES CC[C@H](C)[C@@H](C(=O)N[C@@H](CC(C)C)C(=O)N[C@@H](CO)C(=O)N[C@@H](CO)C(=O)N[C@H](C(=O)N[C@@H](CCC(=O)O)C(=O)N[C@H](C(=O)NCC(=O)N[C@@H](CO)C(=O)N[C@H](C(=O)N[C@H](C(=O)N1C[C@H](O)C[C@H]1C(N)=O)[C@@H](C)O)[C@@H](C)O)C(C)C)[C@@H](C)O)N(C)C(=O)[C@H](C)NC(=O)CN(C)C(=O)[C@H](Cc1ccccc1)NC(=O)[C@H](CO)NC(=O)[C@H](CO)NC(=O)[C@H](CCCNC(=N)N)NC(=O)[C@H](CCC(N)=O)NC(=O)[C@H](CC(C)C)NC(=O)[C@H](Cc1ccccc1)NC(=O)[C@H](Cc1c[nH]cn1)NC(=O)[C@H](C)NC(=O)[C@H](CC(C)C)NC(=O)[C@H](CCCNC(=N)N)NC(=O)[C@H](CCC(=O)O)NC(=O)[C@@H](NC(=O)[C@H](C)NC(=O)[C@@H]1CSSC[C@H](NC(=O)[C@H](CCCNC(=N)N)NC(=O)CC[C@H](NC(=O)CCCCCCCCCCCCCCCCCCC(=O)O)C(=O)O)C(=O)N2CCC[C@H]2C(=O)N[C@@H]([C@@H](C)O)C(=O)N[C@@H](C)C(=O)N[C@@H]([C@@H](C)O)C(=O)N1)[C@@H](C)O) [[19CD]-isoGlu-R-C( )-PTAT-C( )-ATERLAHFLQRSSF-Gly(Me)-A-Ile(Me)-LSSTEVGSTT-Hyp-NH2 (Compd. 74)] | 0.39 nM
{C20 diacid}-[γGlu]RCPTATCATERLAHFLQRSSF[Sar]A[NMeI]LSSTEVGS[Aad]T[Hyp]-NH2 (disulfide 3-8; SMILES CC[C@H](C)[C@@H](C(=O)N[C@@H](CC(C)C)C(=O)N[C@@H](CO)C(=O)N[C@@H](CO)C(=O)N[C@H](C(=O)N[C@@H](CCC(=O)O)C(=O)N[C@H](C(=O)NCC(=O)N[C@@H](CO)C(=O)N[C@@H](CCCC(=O)O)C(=O)N[C@H](C(=O)N1C[C@H](O)C[C@H]1C(N)=O)[C@@H](C)O)C(C)C)[C@@H](C)O)N(C)C(=O)[C@H](C)NC(=O)CN(C)C(=O)[C@H](Cc1ccccc1)NC(=O)[C@H](CO)NC(=O)[C@H](CO)NC(=O)[C@H](CCCNC(=N)N)NC(=O)[C@H](CCC(N)=O)NC(=O)[C@H](CC(C)C)NC(=O)[C@H](Cc1ccccc1)NC(=O)[C@H](Cc1c[nH]cn1)NC(=O)[C@H](C)NC(=O)[C@H](CC(C)C)NC(=O)[C@H](CCCNC(=N)N)NC(=O)[C@H](CCC(=O)O)NC(=O)[C@@H](NC(=O)[C@H](C)NC(=O)[C@@H]1CSSC[C@H](NC(=O)[C@H](CCCNC(=N)N)NC(=O)CC[C@H](NC(=O)CCCCCCCCCCCCCCCCCCC(=O)O)C(=O)O)C(=O)N2CCC[C@H]2C(=O)N[C@@H]([C@@H](C)O)C(=O)N[C@@H](C)C(=O)N[C@@H]([C@@H](C)O)C(=O)N1)[C@@H](C)O) [[19CD]-isoGlu-R-C( )-PTAT-C( )-ATERLAHFLQRSSF-Gly(Me)-A-Ile(Me)-LSSTEVGS-Aad-T-Hyp-NH2 (Compd. 76)] | 0.49 nM
{C20 diacid}-[γGlu]RCGTATCATERLAHFLQRF[Sar]A[NMeI]LSSTEVGSNT[Hyp]-NH2 (disulfide 3-8; SMILES CC[C@H](C)[C@@H](C(=O)N[C@@H](CC(C)C)C(=O)N[C@@H](CO)C(=O)N[C@@H](CO)C(=O)N[C@H](C(=O)N[C@@H](CCC(=O)O)C(=O)N[C@H](C(=O)NCC(=O)N[C@@H](CO)C(=O)N[C@@H](CC(N)=O)C(=O)N[C@H](C(=O)N1C[C@H](O)C[C@H]1C(N)=O)[C@@H](C)O)C(C)C)[C@@H](C)O)N(C)C(=O)[C@H](C)NC(=O)CN(C)C(=O)[C@H](Cc1ccccc1)NC(=O)[C@H](CCCNC(=N)N)NC(=O)[C@H](CCC(N)=O)NC(=O)[C@H](CC(C)C)NC(=O)[C@H](Cc1ccccc1)NC(=O)[C@H](Cc1c[nH]cn1)NC(=O)[C@H](C)NC(=O)[C@H](CC(C)C)NC(=O)[C@H](CCCNC(=N)N)NC(=O)[C@H](CCC(=O)O)NC(=O)[C@@H](NC(=O)[C@H](C)NC(=O)[C@@H]1CSSC[C@H](NC(=O)[C@H](CCCNC(=N)N)NC(=O)CC[C@H](NC(=O)CCCCCCCCCCCCCCCCCCC(=O)O)C(=O)O)C(=O)NCC(=O)N[C@@H]([C@@H](C)O)C(=O)N[C@@H](C)C(=O)N[C@@H]([C@@H](C)O)C(=O)N1)[C@@H](C)O) [[19CD]-isoGlu-R-C( )-GTAT-C( )-ATERLAHFLQRF-Gly(Me)-A-Ile(Me)-LSSTEVGSNT-Hyp-NH2 (Compd. 77)] | 0.42 nM
{C20 diacid}-[γGlu]RCNTATCATQRLAHFLQRSSF[Sar]A[NMeI]LSSTEVGSTT[Hyp]-NH2 (disulfide 3-8; SMILES CC[C@H](C)[C@@H](C(=O)N[C@@H](CC(C)C)C(=O)N[C@@H](CO)C(=O)N[C@@H](CO)C(=O)N[C@H](C(=O)N[C@@H](CCC(=O)O)C(=O)N[C@H](C(=O)NCC(=O)N[C@@H](CO)C(=O)N[C@H](C(=O)N[C@H](C(=O)N1C[C@H](O)C[C@H]1C(N)=O)[C@@H](C)O)[C@@H](C)O)C(C)C)[C@@H](C)O)N(C)C(=O)[C@H](C)NC(=O)CN(C)C(=O)[C@H](Cc1ccccc1)NC(=O)[C@H](CO)NC(=O)[C@H](CO)NC(=O)[C@H](CCCNC(=N)N)NC(=O)[C@H](CCC(N)=O)NC(=O)[C@H](CC(C)C)NC(=O)[C@H](Cc1ccccc1)NC(=O)[C@H](Cc1c[nH]cn1)NC(=O)[C@H](C)NC(=O)[C@H](CC(C)C)NC(=O)[C@H](CCCNC(=N)N)NC(=O)[C@H](CCC(N)=O)NC(=O)[C@@H](NC(=O)[C@H](C)NC(=O)[C@@H]1CSSC[C@H](NC(=O)[C@H](CCCNC(=N)N)NC(=O)CC[C@H](NC(=O)CCCCCCCCCCCCCCCCCCC(=O)O)C(=O)O)C(=O)N[C@@H](CC(N)=O)C(=O)N[C@@H]([C@@H](C)O)C(=O)N[C@@H](C)C(=O)N[C@@H]([C@@H](C)O)C(=O)N1)[C@@H](C)O) [[19CD]-isoGlu-R-C( )-NTAT-C( )-ATQRLAHFLQRSSF-Gly(Me)-A-Ile(Me)-LSSTEVGSTT-Hyp-NH2 (Compd. 73)] | 0.24 nM
{C20 diacid}-[γGlu]RCNTATCATQRLAHFLQRSSF[Sar]A[NMeI]LSSTEVGSGT[Hyp]-NH2 (disulfide 3-8; SMILES CC[C@H](C)[C@@H](C(=O)N[C@@H](CC(C)C)C(=O)N[C@@H](CO)C(=O)N[C@@H](CO)C(=O)N[C@H](C(=O)N[C@@H](CCC(=O)O)C(=O)N[C@H](C(=O)NCC(=O)N[C@@H](CO)C(=O)NCC(=O)N[C@H](C(=O)N1C[C@H](O)C[C@H]1C(N)=O)[C@@H](C)O)C(C)C)[C@@H](C)O)N(C)C(=O)[C@H](C)NC(=O)CN(C)C(=O)[C@H](Cc1ccccc1)NC(=O)[C@H](CO)NC(=O)[C@H](CO)NC(=O)[C@H](CCCNC(=N)N)NC(=O)[C@H](CCC(N)=O)NC(=O)[C@H](CC(C)C)NC(=O)[C@H](Cc1ccccc1)NC(=O)[C@H](Cc1c[nH]cn1)NC(=O)[C@H](C)NC(=O)[C@H](CC(C)C)NC(=O)[C@H](CCCNC(=N)N)NC(=O)[C@H](CCC(N)=O)NC(=O)[C@@H](NC(=O)[C@H](C)NC(=O)[C@@H]1CSSC[C@H](NC(=O)[C@H](CCCNC(=N)N)NC(=O)CC[C@H](NC(=O)CCCCCCCCCCCCCCCCCCC(=O)O)C(=O)O)C(=O)N[C@@H](CC(N)=O)C(=O)N[C@@H]([C@@H](C)O)C(=O)N[C@@H](C)C(=O)N[C@@H]([C@@H](C)O)C(=O)N1)[C@@H](C)O) [[19CD]-isoGlu-R-C( )-NTAT-C( )-ATQRLAHFLQRSSF-Gly(Me)-A-Ile(Me)-LSSTEVGSGT-Hyp-NH2 (Compd. 71)] | 0.18 nM
{C20 diacid}-[γGlu]RCPTATCATERLAHFLQRSSF[Sar]A[NMeI]LSSTEVGSGT[Hyp]-NH2 (disulfide 3-8; SMILES CC[C@H](C)[C@@H](C(=O)N[C@@H](CC(C)C)C(=O)N[C@@H](CO)C(=O)N[C@@H](CO)C(=O)N[C@H](C(=O)N[C@@H](CCC(=O)O)C(=O)N[C@H](C(=O)NCC(=O)N[C@@H](CO)C(=O)NCC(=O)N[C@H](C(=O)N1C[C@H](O)C[C@H]1C(N)=O)[C@@H](C)O)C(C)C)[C@@H](C)O)N(C)C(=O)[C@H](C)NC(=O)CN(C)C(=O)[C@H](Cc1ccccc1)NC(=O)[C@H](CO)NC(=O)[C@H](CO)NC(=O)[C@H](CCCNC(=N)N)NC(=O)[C@H](CCC(N)=O)NC(=O)[C@H](CC(C)C)NC(=O)[C@H](Cc1ccccc1)NC(=O)[C@H](Cc1c[nH]cn1)NC(=O)[C@H](C)NC(=O)[C@H](CC(C)C)NC(=O)[C@H](CCCNC(=N)N)NC(=O)[C@H](CCC(=O)O)NC(=O)[C@@H](NC(=O)[C@H](C)NC(=O)[C@@H]1CSSC[C@H](NC(=O)[C@H](CCCNC(=N)N)NC(=O)CC[C@H](NC(=O)CCCCCCCCCCCCCCCCCCC(=O)O)C(=O)O)C(=O)N2CCC[C@H]2C(=O)N[C@@H]([C@@H](C)O)C(=O)N[C@@H](C)C(=O)N[C@@H]([C@@H](C)O)C(=O)N1)[C@@H](C)O) [[19CD]-isoGlu-R-C( )-PTAT-C( )-ATERLAHFLQRSSF-Gly(Me)-A-Ile(Me)-LSSTEVGSGT-Hyp-NH2 (Compd. 72)] | 0.27 nM
{C20 diacid}-[γGlu]RCNTATCATQRLAHFLQRSSF[Sar]A[NMeI]LSSTEVGS[Aad]T[Hyp]-NH2 (disulfide 3-8; SMILES CC[C@H](C)[C@@H](C(=O)N[C@@H](CC(C)C)C(=O)N[C@@H](CO)C(=O)N[C@@H](CO)C(=O)N[C@H](C(=O)N[C@@H](CCC(=O)O)C(=O)N[C@H](C(=O)NCC(=O)N[C@@H](CO)C(=O)N[C@@H](CCCC(=O)O)C(=O)N[C@H](C(=O)N1C[C@H](O)C[C@H]1C(N)=O)[C@@H](C)O)C(C)C)[C@@H](C)O)N(C)C(=O)[C@H](C)NC(=O)CN(C)C(=O)[C@H](Cc1ccccc1)NC(=O)[C@H](CO)NC(=O)[C@H](CO)NC(=O)[C@H](CCCNC(=N)N)NC(=O)[C@H](CCC(N)=O)NC(=O)[C@H](CC(C)C)NC(=O)[C@H](Cc1ccccc1)NC(=O)[C@H](Cc1c[nH]cn1)NC(=O)[C@H](C)NC(=O)[C@H](CC(C)C)NC(=O)[C@H](CCCNC(=N)N)NC(=O)[C@H](CCC(N)=O)NC(=O)[C@@H](NC(=O)[C@H](C)NC(=O)[C@@H]1CSSC[C@H](NC(=O)[C@H](CCCNC(=N)N)NC(=O)CC[C@H](NC(=O)CCCCCCCCCCCCCCCCCCC(=O)O)C(=O)O)C(=O)N[C@@H](CC(N)=O)C(=O)N[C@@H]([C@@H](C)O)C(=O)N[C@@H](C)C(=O)N[C@@H]([C@@H](C)O)C(=O)N1)[C@@H](C)O) [[19CD]-isoGlu-R-C( )-NTAT-C( )-ATQRLAHFLQRSSF-Gly(Me)-A-Ile(Me)-LSSTEVGS-Aad-T-Hyp-NH2 (Compd. 75)] | 0.26 nM
